The text below walks through data of patent publication US20260125455A1 (CLEVELAND CLINIC FOUNDATION, published 2026).

Assay [1] concerns the target T1, human complement protein C6 (human, UniProt P13671 22-934).
T1 construct: also called human C6; C6 antigen
The assay can be described thus: ELISA, C6-coated wells. The protocol:
The binding of the purified chimeric molecules, MoC601 HuG4K and MoC601 HuG1KFab, was also confirmed by ELISA, where the anti-human IgG (Fab-specific) secondary reagent was used. The control mouse antibody bound as previously (EC₅₀ 0.11 nM). The EC₅₀ for purified MoC601 HuG4K (0.27 nM) was similar to that obtained for the MoC601 HuG4K supernatant sample above. […] The EC₅₀ value for the Fab molecule (0.48 nM) was higher than for the antibody, which would be expected since the Fab is unable to bind bivalently to the antigen on the well. A C6-binding assay was also set up on the Octet RED384 instrument. […] However, MoC601 MoG1K could be stably loaded onto anti-mouse Fc (AMC) biosensors. Concentrations of the mouse and chimeric antibodies were adjusted to give similar levels of loading on to the AMC and […]
(In general: An ELISA detects its analyte on a solid surface through an enzyme-linked reagent.)

For assay [2], the target named is T1, human complement protein C6. The assay can be described thus: ELISA, C6-coated wells, same experiment as the chimeric supernatants. The method, then: The chimeric molecules, MoC601 HuG4K and MoC601 HuG1KFab, were tested for C6 binding in the form of expression supernatants. In this experiment, the human molecules were detected with an HRP-conjugated goat anti-human kappa chain reagent, which gave relative low signals. However, the binding of both chimeric molecules to C6 was confirmed. The EC₅₀ value for MoC601 HuG4K (0.43 nM) was higher than that of the mouse antibody (0.07 nM), though this was lower than in previous experiments. A further experiment was performed to find a more suitable anti-human antibody detection reagent. MoC601 HuG4K from expression supernatant was detected with three different secondary antibodies. Both anti-human IgG Fc-specific and Fab-specific detection gave higher signals than the anti-kappa chain reagent but the Fc-specific detection yielded a very low EC₅₀ (0.03 nM).

The target is the same in assay [3]. Put plainly: ELISA, C6 coated at 0.5 and 1.0 µg/ml, anti-mouse IgG (Fc-specific) HRP. The method, then: Prior to the generation of the chimeric molecules, the binding ELISA was optimised using purified mouse 1C9 antibody. The ELISA method published in Lin et al., 2020, uses human C6 protein at a concentration of 1 nM (0.12 μg/ml) to coat the ELISA plate wells. Since this is lower than the concentrations generally used, coating concentration of 0.5 μg/ml and 1.0 μg/ml were also tested. Binding of the mouse antibody (designated MoC601 MoG1K) was detected with an HRP-conjugated goat anti-mouse IgG (Fc-specific) reagent in an ELISA assay. […] This is likely to make the assay unsuitable for differentiating between the binding of different humanized variants to C6. In contrast, C6 coating concentrations of 0.5 μg/ml and 1.0 μg/ml yield results which show a clear dose-response to MoC601 MoG1K antibody, with sigmoidal-shaped curves and a consistent EC₅₀ value (0.12 nM). […] Due to lower signal variation, 1.0 μg/ml was used as the C6 coating concentration in subsequent experiments.

For assay [4] the target is unchanged. The assay can be described thus: BLI (Octet RED384), antibody on anti-mouse Fc (AMC) biosensors, C6 0.27-5 nM, 1:1 fit, experiment 2. The method, then: (§1) The binding of the purified chimeric molecules, MoC601 HuG4K and MoC601 HuG1KFab, was also confirmed by ELISA, where the anti-human IgG (Fab-specific) secondary reagent was used. The control mouse antibody bound as previously (EC₅₀ 0.11 nM). The EC₅₀ for purified MoC601 HuG4K (0.27 nM) was similar to that obtained for the MoC601 HuG4K supernatant sample above. […] The EC₅₀ value for the Fab molecule (0.48 nM) was higher than for the antibody, which would be expected since the Fab is unable to bind bivalently to the antigen on the well. A C6-binding assay was also set up on the Octet RED384 instrument. […] However, MoC601 MoG1K could be stably loaded onto anti-mouse Fc (AMC) biosensors. Concentrations of the mouse and chimeric antibodies were adjusted to give similar levels of loading on to the AMC and
Protein G biosensors respectively in subsequent experiments. There was no non-specific binding of C6 protein to unloaded sensors or sensors loaded with an isotype control antibody. […] The mouse and chimeric datasets were processed by subtracting the no antigen controls and the data were fitted to a 1:1 binding model. Binding curves giving Req/Rₘₐₓ ratios>90% or showing poor fitting were excluded from analysis. A second full kinetic experiment was performed with an adjusted concentration range (six points, 0.27-5 nM) and an extended dissociation step of 20 minutes.
(In BLI a coated tip is dipped into the sample, and binding shifts an interference pattern.)

Assay [5] has the same target. The assay can be described thus: BLI (Octet RED384), antibody on anti-mouse Fc (AMC) biosensors, C6 0.16-10 nM, 1:1 fit, experiment 1. The protocol: as §1
(§2) Protein G biosensors respectively in subsequent experiments. There was no non-specific binding of C6 protein to unloaded sensors or sensors loaded with an isotype control antibody. A full kinetic experiment was run for purified MoC601 MoG1K and MoC601 HuG4K antibodies using seven concentrations of C6 (0.16-10 nM) and association and dissociation steps of 20 and 15 minutes respectively. The mouse and chimeric datasets were processed by subtracting the no antigen controls and the data were fitted to a 1:1 binding model. […]

The target is the same in assay [6]. The assay can be described thus: BLI (Octet RED384), antibody on anti-mouse Fc (AMC) biosensors, C6 0.16-10 nM, 1:1 fit, experiment 1; experiment 1. The method, then: as §1, §2

T1 sequence (P13671 22-934 limits assumed): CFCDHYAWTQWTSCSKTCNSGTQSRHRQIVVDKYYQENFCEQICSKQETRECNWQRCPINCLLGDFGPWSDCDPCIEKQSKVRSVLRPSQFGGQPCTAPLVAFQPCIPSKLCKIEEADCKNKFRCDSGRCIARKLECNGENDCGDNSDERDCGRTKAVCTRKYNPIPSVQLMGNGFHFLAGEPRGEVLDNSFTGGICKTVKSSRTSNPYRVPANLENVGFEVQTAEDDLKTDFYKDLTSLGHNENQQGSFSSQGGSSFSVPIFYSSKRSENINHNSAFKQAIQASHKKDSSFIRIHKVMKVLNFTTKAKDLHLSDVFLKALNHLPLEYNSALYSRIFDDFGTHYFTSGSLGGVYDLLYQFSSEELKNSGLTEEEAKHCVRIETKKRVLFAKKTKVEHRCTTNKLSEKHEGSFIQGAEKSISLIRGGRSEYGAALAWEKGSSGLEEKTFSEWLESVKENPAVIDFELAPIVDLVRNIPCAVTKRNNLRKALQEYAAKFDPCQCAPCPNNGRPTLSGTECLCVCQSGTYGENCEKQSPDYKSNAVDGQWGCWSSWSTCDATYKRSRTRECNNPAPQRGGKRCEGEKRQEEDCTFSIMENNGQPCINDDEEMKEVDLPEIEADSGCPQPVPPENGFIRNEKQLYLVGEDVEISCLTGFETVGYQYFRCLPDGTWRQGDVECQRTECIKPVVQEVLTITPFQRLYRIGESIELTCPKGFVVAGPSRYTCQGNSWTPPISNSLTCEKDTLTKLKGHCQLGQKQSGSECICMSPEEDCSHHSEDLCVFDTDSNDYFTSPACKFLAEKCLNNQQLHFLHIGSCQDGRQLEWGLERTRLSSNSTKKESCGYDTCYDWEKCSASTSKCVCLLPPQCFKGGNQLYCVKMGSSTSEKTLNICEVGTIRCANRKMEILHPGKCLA

B1: MoC601 MoG1K (mouse anti-C6 monoclonal antibody 1C9) (antibody, V domains shown)
VH: QVQLQQSGAELVKPGASVKISCKASGYAFSDYWMNWVKQRPGKGLEWIGQIYPGDDDTNYNGKFKGKATLTADKSSSTAYMQLSSLTSEDSAVYFCAREGYYGYTYVEYFDVWGTGTTVTVSS
VL: QIVLTQSPAIMSVSPGEKVTLTCSASSSVSYMHWYQQKSGTSPKRWIYDTSKLASGVPARFSGSGSGTSYSLTISSMEAEDAATYYCQQWTSNPLTFGAGTKLELR
notes: also called mAb 1C9; mouse antibody
In general, EC50 refers to the concentration at which the effect is half-maximal. The low end stands for greater potency, the high end for weaker potency. Broadly, the Kd is the concentration at which binding is half-saturated. Lower therefore signals tighter binding. By kon is commonly meant the second-order rate constant of association. Read a low kon as slow association. One may read the koff as a measure of how fast the partners let go of each other. High values mean a short-lived complex, low ones a long-lived complex. Turning to B1, the EC50 in assay [1] amounted to 0.11 nM; in assay [2] it was 0.07 nM; in assay [3] it was 0.12 nM. The Kd in assay [4] was determined as 0.29 nM; in assay [5] it was 0.42 nM. In addition, the kon in assay [4] came to 690000 M⁻¹ s⁻¹; in assay [5], 730000 M⁻¹ s⁻¹. In assay [6], this molecule yielded a koff of 0.00031 s⁻¹.
